Four molecules from US20260167721A1 (ABLEXIS, published 2026) can be followed below.

Assay [1] concerns the target T1, CD3 on Jurkat wild-type cells (UniProt P07766 23-207; P04234 22-171; P09693 23-182).
T1 construct: whole, on cells; also called Jurkat WT
Description: flow cytometry on Jurkat WT cells, antibody at 1 ug/ml.

The target of assay [2] is T2, CD33 on KILR-HL60 cells (UniProt P20138 18-364, limits assumed).
T2 construct: whole, on cells; Target of the gemtuzumab arm; also called CD33 expressing cells
T2 sequence (P20138 18-364 limits assumed): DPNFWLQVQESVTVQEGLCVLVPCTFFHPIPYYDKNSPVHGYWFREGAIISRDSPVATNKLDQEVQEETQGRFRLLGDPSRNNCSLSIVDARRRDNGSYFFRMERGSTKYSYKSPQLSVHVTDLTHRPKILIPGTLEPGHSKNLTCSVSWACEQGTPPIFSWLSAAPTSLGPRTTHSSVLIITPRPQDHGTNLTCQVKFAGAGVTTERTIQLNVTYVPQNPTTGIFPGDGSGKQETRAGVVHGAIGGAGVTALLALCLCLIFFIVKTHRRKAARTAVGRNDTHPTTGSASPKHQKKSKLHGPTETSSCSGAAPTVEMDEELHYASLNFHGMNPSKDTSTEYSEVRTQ
Description: flow cytometry on KILR-HL60 (CD33 expressing) cells, antibody at 1 ug/ml.

In assay [3] the target is T1, CD3 on Jurkat wild-type cells. The assay is described as follows: flow cytometry on Jurkat WT cells, antibody at 10 ug/ml.
Assay [4] addresses T2, CD33 on KILR-HL60 cells. The assay is described as follows: flow cytometry on KILR-HL60 (CD33 expressing) cells, antibody at 10 ug/ml.

T1 sequence (P07766 23-207, chain 1 of 3): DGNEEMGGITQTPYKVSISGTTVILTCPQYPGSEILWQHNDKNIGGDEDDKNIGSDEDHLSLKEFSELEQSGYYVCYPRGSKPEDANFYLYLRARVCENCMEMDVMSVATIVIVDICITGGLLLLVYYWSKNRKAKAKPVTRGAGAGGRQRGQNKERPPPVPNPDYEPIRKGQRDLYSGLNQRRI
T1 sequence (P04234 22-171, chain 2 of 3): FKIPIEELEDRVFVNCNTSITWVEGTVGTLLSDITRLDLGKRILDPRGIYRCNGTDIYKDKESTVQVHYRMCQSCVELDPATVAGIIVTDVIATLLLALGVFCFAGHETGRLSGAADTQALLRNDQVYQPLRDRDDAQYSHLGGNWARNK
T1 sequence (P09693 23-182, chain 3 of 3): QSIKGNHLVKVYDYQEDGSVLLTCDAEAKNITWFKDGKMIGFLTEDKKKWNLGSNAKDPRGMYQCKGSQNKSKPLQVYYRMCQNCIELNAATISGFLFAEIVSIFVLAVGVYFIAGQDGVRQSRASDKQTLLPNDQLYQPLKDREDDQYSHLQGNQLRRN

B1: CD3 × CD33-BspAb61 (bispecific antibody)
scFv-Fc: NFMLTQPHSVSESPGKTVTISCTRSSGSIASNYVQWYQQRPGSSPTTVIYEDNQRPSGVPDRFSGSIDSSSNSASLTISGLKTEDEADYYCQSFDNSNRVFGCGTKLTVLGGGGSGGGGSGGGGSGGGGSEVQLVESGGGLVKPGGSLRLSCAASGFTFSRYSMNWVRQAPGKCLKWVSSISSSGSYKYYADSVKGRFTISRDNAKNSLYLQMNSLRAEDTAVYYCAREPPTLGMDYWGQGTLVTVSSGGGGSDKTHTCPPCPAPEFEGGPSVFLFPPKPKDTLMISRTPEVTCVVVDVSHEDPEVKFNWYVDGVEVHNAKTKPREEQYNSTYRVVSVLTVLHQDWLNGKEYKCKVSNKALPASIEKTISKAKGQPREPQVYTLPPCREEMTKNQVSLWCLVKGFYPSDIAVEWESNGQPENNYKTTPPVLDSDGSFFLYSKLTVDKSRWQQGNVFSCSVMHEALHNHYTQKSLSLSPGK
heavy: EVQLVQSGAEVKKPGSSVKVSCKASGYTITDSNIHWVRQAPGQSLEWIGYIYPYNGGTDYNQKFKNRATLTVDNPTNTAYMELSSLRSEDTAFYYCVNGNPWLAYWGQGTLVTVSSASTKGPSVFPLAPSSKSTSGGTAALGCLVKDYFPEPVTVSWNSGALTSGVHTFPAVLQSSGLYSLSSVVTVPSSSLGTQTYICNVNHKPSNTKVDKRVEPKSCDKTHTCPPCPAPEFEGGPSVFLFPPKPKDTLMISRTPEVTCVVVDVSHEDPEVKFNWYVDGVEVHNAKTKPREEQYNSTYRVVSVLTVLHQDWLNGKEYKCKVSNKALPASIEKTISKAKGQPREPQVCTLPPSREEMTKNQVSLSCAVKGFYPSDIAVEWESNGQPENNYKTTPPVLDSDGSFFLVSKLTVDKSRWQQGNVFSCSVMHEALHNRFTQKSLSLSPGK
light: DIQLTQSPSTLSASVGDRVTITCRASESLDNYGIRFLTWFQQKPGKAPKLLMYAASNQGSGVPSRFSGSGSGTEFTLTISSLQPDDFATYYCQQTKEVPWSFGQGTKVEVKRTVAAPSVFIFPPSDEQLKSGTASVVCLLNNFYPREAKVQWKVDNALQSGNSQESVTEQDSKDSTYSLSSTLTLSKADYEKHKVYACEVTHQGLSSPVTKSFNRGEC
With B1, the flow cytometry signal was 95600 in assay [1], 621000 in the assay with CD33 on KILR-HL60 cells [2], 84800 in assay [3] and 538000 with CD33 on KILR-HL60 cells [4].

B2: Control Humanized anti-CD3 (high affinity) scFv-Fc knob/TM x gemtuzumab (bispecific antibody)
scFv: EVQLVESGGGLVQPGGSLRLSCAASGFTFSTYAMNWVRQAPGKGLEWVGRIRSKYNNYATYYADSVKGRFTISRDDSKNTLYLQMNSLRAEDTAVYYCVRHGNFGDSYVSWFAYWGQGTLVTVSSGKPGSGKPGSGKPGSGKPGSQAVVTQEPSLTVSPGGTVTLTCGSSTGAVTTSNYANWVQQKPGKSPRGLIGGTNKRAPGVPARFSGSLLGGKAALTISGAQPEDEADYYCALWYSNHWVFGGGTKLTVLGGGGSDKTHTCPPCPAPEFEGGPSVFLFPPKPKDTLMISRTPEVTCVVVDVSHEDPEVKFNWYVDGVEVHNAKTKPREEQYNSTYRVVSVLTVLHQDWLNGKEYKCKVSNKALPASIEKTISKAKGQPREPQVYTLPPCREEMTKNQVSLWCLVKGFYPSDIAVEWESNGQPENNYKTTPPVLDSDGSFFLYSKLTVDKSRWQQGNVFSCSVMHEALHNHYTQKSLSLSPGK
heavy: EVQLVQSGAEVKKPGSSVKVSCKASGYTITDSNIHWVRQAPGQSLEWIGYIYPYNGGTDYNQKFKNRATLTVDNPTNTAYMELSSLRSEDTAFYYCVNGNPWLAYWGQGTLVTVSSASTKGPSVFPLAPSSKSTSGGTAALGCLVKDYFPEPVTVSWNSGALTSGVHTFPAVLQSSGLYSLSSVVTVPSSSLGTQTYICNVNHKPSNTKVDKRVEPKSCDKTHTCPPCPAPEFEGGPSVFLFPPKPKDTLMISRTPEVTCVVVDVSHEDPEVKFNWYVDGVEVHNAKTKPREEQYNSTYRVVSVLTVLHQDWLNGKEYKCKVSNKALPASIEKTISKAKGQPREPQVCTLPPSREEMTKNQVSLSCAVKGFYPSDIAVEWESNGQPENNYKTTPPVLDSDGSFFLVSKLTVDKSRWQQGNVFSCSVMHEALHNRFTQKSLSLSPGK
light: DIQLTQSPSTLSASVGDRVTITCRASESLDNYGIRFLTWFQQKPGKAPKLLMYAASNQGSGVPSRFSGSGSGTEFTLTISSLQPDDFATYYCQQTKEVPWSFGQGTKVEVKRTVAAPSVFIFPPSDEQLKSGTASVVCLLNNFYPREAKVQWKVDNALQSGNSQESVTEQDSKDSTYSLSSTLTLSKADYEKHKVYACEVTHQGLSSPVTKSFNRGEC
For B2, the flow cytometry signal in assay [1] was determined as 37900; in the assay with CD33 on KILR-HL60 cells [2], 544000; in assay [3], 38400; in the assay with CD33 on KILR-HL60 cells [4], 648000.

B3: CD3 × CD33-BspAb62 (bispecific antibody)
scFv-Fc: NFMLTQPHSVSESPGKTVTISCTRSSGSIASNYVQWYQQRPGSSPTTVIYEDNQRPSGVPDRFSGSIDSSSNSASLTISGLKTEDEADYYCQSYDSSNHVFGCGTKLTVLGGGGSGGGGSGGGGSGGGGSEVQLVESGGGLVQPGGSLRLSCAASGFTFSRYSMNWVRQAPGKCLEWVSYISSSSSSIYYADSVKGRFTISRDNAKNSLYLQMNSLRDEDTAVYYCARDRRATLDYWGQGTLVTVSSGGGGSDKTHTCPPCPAPEFEGGPSVFLFPPKPKDTLMISRTPEVTCVVVDVSHEDPEVKFNWYVDGVEVHNAKTKPREEQYNSTYRVVSVLTVLHQDWLNGKEYKCKVSNKALPASIEKTISKAKGQPREPQVYTLPPCREEMTKNQVSLWCLVKGFYPSDIAVEWESNGQPENNYKTTPPVLDSDGSFFLYSKLTVDKSRWQQGNVFSCSVMHEALHNHYTQKSLSLSPGK
heavy: EVQLVQSGAEVKKPGSSVKVSCKASGYTITDSNIHWVRQAPGQSLEWIGYIYPYNGGTDYNQKFKNRATLTVDNPTNTAYMELSSLRSEDTAFYYCVNGNPWLAYWGQGTLVTVSSASTKGPSVFPLAPSSKSTSGGTAALGCLVKDYFPEPVTVSWNSGALTSGVHTFPAVLQSSGLYSLSSVVTVPSSSLGTQTYICNVNHKPSNTKVDKRVEPKSCDKTHTCPPCPAPEFEGGPSVFLFPPKPKDTLMISRTPEVTCVVVDVSHEDPEVKFNWYVDGVEVHNAKTKPREEQYNSTYRVVSVLTVLHQDWLNGKEYKCKVSNKALPASIEKTISKAKGQPREPQVCTLPPSREEMTKNQVSLSCAVKGFYPSDIAVEWESNGQPENNYKTTPPVLDSDGSFFLVSKLTVDKSRWQQGNVFSCSVMHEALHNRFTQKSLSLSPGK
light: DIQLTQSPSTLSASVGDRVTITCRASESLDNYGIRFLTWFQQKPGKAPKLLMYAASNQGSGVPSRFSGSGSGTEFTLTISSLQPDDFATYYCQQTKEVPWSFGQGTKVEVKRTVAAPSVFIFPPSDEQLKSGTASVVCLLNNFYPREAKVQWKVDNALQSGNSQESVTEQDSKDSTYSLSSTLTLSKADYEKHKVYACEVTHQGLSSPVTKSFNRGEC
In the case of B3, the flow cytometry signal in assay [1] worked out at 62500; with CD33 on KILR-HL60 cells [2], 295000; in assay [3], 59000; in the assay with CD33 on KILR-HL60 cells [4] it was 595000.

B4: CD3 × CD33-BspAb66 (bispecific antibody, human IgG1, kappa)
scFv: EVQLVESGGGLVQPGRSLRLSCAASGFTFDDYAMHWVRQAPGKGLEWVSGISWNSGSIGYADSVKGRFTISRDNAKNSLYLQMNSLRAEDTALYYCAKDSRGYGDYRLGGAYWGQGTLVTVSSGGGGSGGGGSGGGGSGGGGSEIVMTQSPATLSVSPGERATLSCRASQSVSSNLAWYQQKPGQAPRLLIYGASTRATGIPARFSGSGSGTEFTLTISSLQSEDFAVYYCQQYNNWPWTFGQGTKVEIKTSGPGGPDKTHTCPPCPAPEFEGGPSVFLFPPKPKDTLMISRTPEVTCVVVDVSHEDPEVKFNWYVDGVEVHNAKTKPREEQYNSTYRVVSVLTVLHQDWLNGKEYKCKVSNKALPASIEKTISKAKGQPREPQVYTLPPCREEMTKNQVSLWCLVKGFYPSDIAVEWESNGQPENNYKTTPPVLDSDGSFFLYSKLTVDKSRWQQGNVFSCSVMHEALHNHYTQKSLSLSPGK
heavy: EVQLVQSGAEVKKPGSSVKVSCKASGYTITDSNIHWVRQAPGQSLEWIGYIYPYNGGTDYNQKFKNRATLTVDNPTNTAYMELSSLRSEDTAFYYCVNGNPWLAYWGQGTLVTVSSASTKGPSVFPLAPSSKSTSGGTAALGCLVKDYFPEPVTVSWNSGALTSGVHTFPAVLQSSGLYSLSSVVTVPSSSLGTQTYICNVNHKPSNTKVDKRVEPKSCDKTHTCPPCPAPEFEGGPSVFLFPPKPKDTLMISRTPEVTCVVVDVSHEDPEVKFNWYVDGVEVHNAKTKPREEQYNSTYRVVSVLTVLHQDWLNGKEYKCKVSNKALPASIEKTISKAKGQPREPQVCTLPPSREEMTKNQVSLSCAVKGFYPSDIAVEWESNGQPENNYKTTPPVLDSDGSFFLVSKLTVDKSRWQQGNVFSCSVMHEALHNRFTQKSLSLSPGK
light: DIQLTQSPSTLSASVGDRVTITCRASESLDNYGIRFLTWFQQKPGKAPKLLMYAASNQGSGVPSRFSGSGSGTEFTLTISSLQPDDFATYYCQQTKEVPWSFGQGTKVEVKRTVAAPSVFIFPPSDEQLKSGTASVVCLLNNFYPREAKVQWKVDNALQSGNSQESVTEQDSKDSTYSLSSTLTLSKADYEKHKVYACEVTHQGLSSPVTKSFNRGEC
notes: also called CD3δε-specific control antibody scFv-Fc knob/TM x gemtuzumab
As to B4, the flow cytometry signal in assay [1] is 6660; with CD33 on KILR-HL60 cells [2], 569000; in assay [3], 23100; with CD33 on KILR-HL60 cells [4] it was 499000.
